Measurements taken from WO2013151666A2.

Biological target: Low density lipoprotein receptor (LDLR) expressed on HEK293 cells transfected with LDLR modified mRNA (mRNA SEQ ID NO: 21463) (human) (UniProt P01130)
Experiment: FACS; rising amounts of BODIPY-LDL on HEK293 cells transfected with LDLR mRNA, 1 h at 37 C

Low density lipoprotein receptor (LDLR) expressed on HEK293 cells transfected with LDLR modified mRNA (mRNA SEQ ID NO: 21463) (human), sequence (P01130 22-860): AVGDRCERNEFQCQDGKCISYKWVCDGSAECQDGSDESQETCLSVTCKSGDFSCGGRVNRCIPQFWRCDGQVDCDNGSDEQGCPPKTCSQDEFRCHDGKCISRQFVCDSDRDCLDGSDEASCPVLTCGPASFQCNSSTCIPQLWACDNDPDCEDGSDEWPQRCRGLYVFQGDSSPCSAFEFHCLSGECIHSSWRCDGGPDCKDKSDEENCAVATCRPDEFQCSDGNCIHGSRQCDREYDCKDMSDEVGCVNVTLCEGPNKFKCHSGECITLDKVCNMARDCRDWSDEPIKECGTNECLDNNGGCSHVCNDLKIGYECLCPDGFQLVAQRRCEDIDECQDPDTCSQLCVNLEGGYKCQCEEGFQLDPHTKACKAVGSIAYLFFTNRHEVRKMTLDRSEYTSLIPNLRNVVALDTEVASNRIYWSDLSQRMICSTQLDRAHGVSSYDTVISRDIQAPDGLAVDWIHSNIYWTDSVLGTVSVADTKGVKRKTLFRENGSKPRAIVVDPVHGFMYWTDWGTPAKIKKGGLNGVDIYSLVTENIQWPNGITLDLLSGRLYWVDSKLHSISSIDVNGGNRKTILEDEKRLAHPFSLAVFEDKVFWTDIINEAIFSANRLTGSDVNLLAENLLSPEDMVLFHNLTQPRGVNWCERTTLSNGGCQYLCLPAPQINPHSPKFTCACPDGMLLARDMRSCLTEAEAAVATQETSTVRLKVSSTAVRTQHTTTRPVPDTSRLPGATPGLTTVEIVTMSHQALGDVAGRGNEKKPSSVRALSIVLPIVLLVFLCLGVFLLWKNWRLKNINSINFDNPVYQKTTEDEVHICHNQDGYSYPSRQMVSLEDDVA

Kd: 0.06 µg/mL
Substance: BODIPY-labeled LDL (low density lipoprotein) (from UniProt P04114 28-4563) (ligand)
